Data as given in IntAct's records for PubMed 27150041.

Target: smu2_caeel smu-2 (UniProt Q9N4U5)
Sequence (Q9N4U5 whole entry): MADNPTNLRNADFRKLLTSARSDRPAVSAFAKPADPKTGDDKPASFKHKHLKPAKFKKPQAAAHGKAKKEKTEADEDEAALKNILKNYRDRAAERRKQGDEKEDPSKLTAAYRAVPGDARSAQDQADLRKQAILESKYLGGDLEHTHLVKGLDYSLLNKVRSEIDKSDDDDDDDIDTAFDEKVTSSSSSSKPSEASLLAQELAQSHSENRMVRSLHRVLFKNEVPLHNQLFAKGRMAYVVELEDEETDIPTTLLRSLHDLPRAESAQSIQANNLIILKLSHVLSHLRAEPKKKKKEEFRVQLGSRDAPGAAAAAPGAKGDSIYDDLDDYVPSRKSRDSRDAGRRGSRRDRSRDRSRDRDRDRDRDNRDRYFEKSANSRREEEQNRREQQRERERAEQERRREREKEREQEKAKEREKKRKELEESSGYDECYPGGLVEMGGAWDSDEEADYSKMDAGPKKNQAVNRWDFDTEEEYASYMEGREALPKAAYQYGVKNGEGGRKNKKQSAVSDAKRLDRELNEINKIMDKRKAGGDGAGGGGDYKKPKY

Chain of Smu-1 suppressor of mec-8 and unc-52 protein (Caenorhabditis elegans), G5EEG7 L96R (G5EEG7 whole entry L96R): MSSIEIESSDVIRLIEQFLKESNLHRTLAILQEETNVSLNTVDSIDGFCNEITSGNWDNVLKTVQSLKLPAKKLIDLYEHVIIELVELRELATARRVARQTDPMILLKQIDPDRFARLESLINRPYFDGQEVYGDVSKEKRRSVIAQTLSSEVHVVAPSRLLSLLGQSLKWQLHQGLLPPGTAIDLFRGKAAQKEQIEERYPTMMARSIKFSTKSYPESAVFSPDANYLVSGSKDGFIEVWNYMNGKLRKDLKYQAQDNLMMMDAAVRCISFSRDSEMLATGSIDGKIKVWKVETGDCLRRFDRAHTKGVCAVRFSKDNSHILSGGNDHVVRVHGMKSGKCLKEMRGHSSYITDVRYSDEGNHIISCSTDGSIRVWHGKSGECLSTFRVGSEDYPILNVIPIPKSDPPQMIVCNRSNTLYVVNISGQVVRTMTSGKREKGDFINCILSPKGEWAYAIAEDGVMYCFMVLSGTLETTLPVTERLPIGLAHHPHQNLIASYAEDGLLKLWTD

In the case of “Smu-1 suppressor of mec-8 and unc-52 protein (Caenorhabditis elegans), G5EEG7 L96R”, the “effect of a mutation on the interaction” value is reported as “disrupting interaction strength”.
